Measurements taken from paper PMC5037330, “Large-Scale Movements of IF3 and tRNA during Bacterial Translation Initiation” (Cell, 2016).

Molecular target: T1, IF3 Thermus thermophilus (Thermus thermophilus, UniProt Q5SKU2 1-171)
T1 construct: Translation initiation factor IF3 of Thermus thermophilus; residues 3 to 170 were modelled (N-terminal domain, helical linker, C-terminal domain); also called initiation factor 3; NTD; source: E. coli BL21(DE3), purified (same protocol as IF1: 65°C heat step, ion exchange, hydroxylapatite)
T1 sequence: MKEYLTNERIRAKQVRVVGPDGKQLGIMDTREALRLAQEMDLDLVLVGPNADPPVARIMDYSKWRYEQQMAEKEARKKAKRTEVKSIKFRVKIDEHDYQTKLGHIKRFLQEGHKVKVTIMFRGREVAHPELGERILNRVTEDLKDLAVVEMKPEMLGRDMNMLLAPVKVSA
Test: cryo-EM structure; Sample 1 (without IF2): T. thermophilus 30S, IF1, IF3, mRNA and fMet-tRNA mixed 1:4:4:3:3, complex at 120 nM, 5 mM HEPES pH 7.5, 10 mM MgAc, 50 mM KCl, 10 mM NH4Cl, 6 mM 2-mercaptoethanol; put on grids without further purification; classes PIC-1A to PIC-4
Conditions: both partners purified

binding result: binds
B1: IF1 Thermus thermophilus (natural protein)
chain: MAKEKDTIRTEGVVTEALPNATFRVKLDSGPEILAYISGKMRMHYIRILPGDRVVVEITPYDPTRGRIVYRK
notes: Translation initiation factor IF1 of Thermus thermophilus, expressed as in Carter et al., 2001; also called initiation factor 1; source: E. coli BL21(DE3), purified (65°C heat step, ion exchange, hydroxylapatite)
